{"source": "patent US20260151519A1", "about": "(AKTIS ONCOLOGY, published 2026)", "note": "Primed or numbered codes have the meaning given here. Where no end group is shown, it is not given here. The star is where a group is joined. Biotin = O=C1N[C@H]2[C@H](CS[C@H]2CCCCC(=O)*)N1; PEG4′ = not defined here", "data": [{"target": "T1, SPNS2 (human, UniProt Q8IVW8 1-549)", "T1 construct": "whole, on cells", "T1 sequence (looked up)": "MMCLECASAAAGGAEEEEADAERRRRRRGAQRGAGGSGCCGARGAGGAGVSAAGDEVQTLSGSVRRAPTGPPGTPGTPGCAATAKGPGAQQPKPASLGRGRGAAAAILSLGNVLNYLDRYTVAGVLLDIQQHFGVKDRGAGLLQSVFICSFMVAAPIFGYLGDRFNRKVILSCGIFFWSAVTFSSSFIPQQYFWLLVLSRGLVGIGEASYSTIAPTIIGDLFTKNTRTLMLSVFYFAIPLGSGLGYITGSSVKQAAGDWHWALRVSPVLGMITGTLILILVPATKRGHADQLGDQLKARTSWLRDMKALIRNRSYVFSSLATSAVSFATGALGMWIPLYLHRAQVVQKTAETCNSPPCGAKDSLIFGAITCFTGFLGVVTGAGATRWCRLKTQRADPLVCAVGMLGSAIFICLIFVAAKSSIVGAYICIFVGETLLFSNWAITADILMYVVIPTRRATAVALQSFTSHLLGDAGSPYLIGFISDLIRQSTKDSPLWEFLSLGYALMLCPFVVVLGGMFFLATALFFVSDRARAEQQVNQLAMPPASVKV", "assay": "cell microarray on HEK293 cells", "method": "(§1) Initially, two pools of compounds were tested. […] To perform this assay, HEK293 cells were plated on a dish and localized spots of cells were transiently over-expressed with a single cDNA encoding for GFP and one of the 6,416 targets. Included in this library were multiple clones for the Nectin family members, including plasma membrane, non-tethered secreted, and tethered secreted forms of Nectin-1, 2, 3, and 4. Secreted protein targets were tethered to the plasma membrane to aid in detection. The molecule pools were incubated on the fixed, over-expressing cell microarrays (n=2 per protein), and binding was visualized using Alexa Fluor 647 streptavidin fluorescence.", "values": [{"binder": "{Biotin-PEG4′}-CDYDEQFFTALARLRGADICEYIQASFQYLPGECIEEILDNLGCS (designed binder, cysteine pairing not given here)", "note": "[C247]", "binding result": "no binding (tested: 2 µg/mL)"}, {"binder": "{Biotin-PEG4′}-CDYDEQFFTALKRLRGGDICEYIQASFQYLPGLCIEEILDNLGCS (designed binder, cysteine pairing not given here)", "note": "[C190]", "binding result": "no binding (tested: 2 µg/mL)"}, {"binder": "{Biotin-PEG4′}-CEYDEQFFTALKRLRGDDICDYIQASFQYLPGLCIEEILDNLGCS (designed binder, cysteine pairing not given here)", "note": "[C197]", "binding result": "no binding (tested: 2 µg/mL)"}]}, {"target": "T2, GLP2R (human, UniProt O95838 1-553)", "T2 construct": "whole, on cells", "T2 sequence (looked up)": "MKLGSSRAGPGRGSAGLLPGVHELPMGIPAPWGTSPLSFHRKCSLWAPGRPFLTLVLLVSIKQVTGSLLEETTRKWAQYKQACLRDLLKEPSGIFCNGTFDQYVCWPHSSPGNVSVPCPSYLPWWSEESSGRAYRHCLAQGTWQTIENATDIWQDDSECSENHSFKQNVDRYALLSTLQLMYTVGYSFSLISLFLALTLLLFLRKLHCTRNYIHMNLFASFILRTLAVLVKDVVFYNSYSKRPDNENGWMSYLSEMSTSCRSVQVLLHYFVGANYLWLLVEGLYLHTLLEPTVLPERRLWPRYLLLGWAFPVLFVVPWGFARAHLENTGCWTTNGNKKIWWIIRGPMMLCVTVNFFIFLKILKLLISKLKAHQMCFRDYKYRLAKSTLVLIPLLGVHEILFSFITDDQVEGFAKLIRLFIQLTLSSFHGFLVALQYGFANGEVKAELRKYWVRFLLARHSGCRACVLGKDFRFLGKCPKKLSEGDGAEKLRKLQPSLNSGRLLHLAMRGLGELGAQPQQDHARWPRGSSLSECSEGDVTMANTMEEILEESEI", "assay": "cell microarray on HEK293 cells", "method": "as §1", "values": [{"binder": "{Biotin-PEG4′}-CDYDEQFFTALARLRGADICEYIQASFQYLPGECIEEILDNLGCS (designed binder, cysteine pairing not given here)", "note": "[C247]", "binding result": "no binding (tested: 2 µg/mL)"}, {"binder": "{Biotin-PEG4′}-CDYDEQFFTALKRLRGGDICEYIQASFQYLPGLCIEEILDNLGCS (designed binder, cysteine pairing not given here)", "note": "[C190]", "binding result": "no binding (tested: 2 µg/mL)"}, {"binder": "{Biotin-PEG4′}-CEYDEQFFTALKRLRGDDICDYIQASFQYLPGLCIEEILDNLGCS (designed binder, cysteine pairing not given here)", "note": "[C197]", "binding result": "no binding (tested: 2 µg/mL)"}]}, {"target": "T3, IGFBP4 (human, UniProt P22692 22-258)", "T3 construct": "whole, on cells; Secreted targets were tethered to the plasma membrane", "T3 sequence (looked up)": "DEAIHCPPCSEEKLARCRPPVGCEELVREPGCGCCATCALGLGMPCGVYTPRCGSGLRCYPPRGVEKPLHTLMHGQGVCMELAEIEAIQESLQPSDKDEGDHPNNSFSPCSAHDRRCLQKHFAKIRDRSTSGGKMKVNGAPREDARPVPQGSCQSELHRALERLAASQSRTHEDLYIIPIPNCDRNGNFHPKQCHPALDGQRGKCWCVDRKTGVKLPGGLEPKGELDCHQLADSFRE", "assay": "cell microarray on HEK293 cells", "method": "as §1", "values": [{"binder": "{Biotin-PEG4′}-CDYDEQFFTALARLRGADICEYIQASFQYLPGECIEEILDNLGCS (designed binder, cysteine pairing not given here)", "note": "[C247]", "binding result": "no binding (tested: 2 µg/mL)"}, {"binder": "{Biotin-PEG4′}-CDYDEQFFTALKRLRGGDICEYIQASFQYLPGLCIEEILDNLGCS (designed binder, cysteine pairing not given here)", "note": "[C190]", "binding result": "no binding (tested: 2 µg/mL)"}, {"binder": "{Biotin-PEG4′}-CEYDEQFFTALKRLRGDDICDYIQASFQYLPGLCIEEILDNLGCS (designed binder, cysteine pairing not given here)", "note": "[C197]", "binding result": "no binding (tested: 2 µg/mL)"}]}, {"target": "T4, IGF1 (human, UniProt P05019 49-118)", "T4 construct": "whole, on cells; Secreted targets were tethered to the plasma membrane", "T4 sequence (P05019 49-118)": "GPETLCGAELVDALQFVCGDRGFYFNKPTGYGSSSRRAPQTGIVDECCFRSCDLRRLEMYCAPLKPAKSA", "assay": "cell microarray on HEK293 cells", "method": "as §1", "values": [{"binder": "{Biotin-PEG4′}-CDYDEQFFTALARLRGADICEYIQASFQYLPGECIEEILDNLGCS (designed binder, cysteine pairing not given here)", "note": "[C247]", "binding result": "no binding (tested: 2 µg/mL)"}, {"binder": "{Biotin-PEG4′}-CDYDEQFFTALKRLRGGDICEYIQASFQYLPGLCIEEILDNLGCS (designed binder, cysteine pairing not given here)", "note": "[C190]", "binding result": "no binding (tested: 2 µg/mL)"}, {"binder": "{Biotin-PEG4′}-CEYDEQFFTALKRLRGDDICDYIQASFQYLPGLCIEEILDNLGCS (designed binder, cysteine pairing not given here)", "note": "[C197]", "binding result": "no binding (tested: 2 µg/mL)"}]}, {"target": "T5, CXCL12 (human, UniProt P48061 22-93)", "T5 construct": "whole, on cells; Secreted targets were tethered to the plasma membrane", "T5 sequence (P48061 22-93)": "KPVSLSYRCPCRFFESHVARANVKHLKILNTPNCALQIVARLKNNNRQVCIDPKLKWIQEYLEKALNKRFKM", "assay": "cell microarray on HEK293 cells", "method": "as §1", "values": [{"binder": "{Biotin-PEG4′}-CDYDEQFFTALARLRGADICEYIQASFQYLPGECIEEILDNLGCS (designed binder, cysteine pairing not given here)", "note": "[C247]", "binding result": "no binding (tested: 2 µg/mL)"}, {"binder": "{Biotin-PEG4′}-CDYDEQFFTALKRLRGGDICEYIQASFQYLPGLCIEEILDNLGCS (designed binder, cysteine pairing not given here)", "note": "[C190]", "binding result": "no binding (tested: 2 µg/mL)"}, {"binder": "{Biotin-PEG4′}-CEYDEQFFTALKRLRGDDICDYIQASFQYLPGLCIEEILDNLGCS (designed binder, cysteine pairing not given here)", "note": "[C197]", "binding result": "no binding (tested: 2 µg/mL)"}]}, {"target": "T6, TRPV5 (human, UniProt Q9NQA5 1-729)", "T6 construct": "whole, on cells", "T6 sequence (Q9NQA5 whole entry)": "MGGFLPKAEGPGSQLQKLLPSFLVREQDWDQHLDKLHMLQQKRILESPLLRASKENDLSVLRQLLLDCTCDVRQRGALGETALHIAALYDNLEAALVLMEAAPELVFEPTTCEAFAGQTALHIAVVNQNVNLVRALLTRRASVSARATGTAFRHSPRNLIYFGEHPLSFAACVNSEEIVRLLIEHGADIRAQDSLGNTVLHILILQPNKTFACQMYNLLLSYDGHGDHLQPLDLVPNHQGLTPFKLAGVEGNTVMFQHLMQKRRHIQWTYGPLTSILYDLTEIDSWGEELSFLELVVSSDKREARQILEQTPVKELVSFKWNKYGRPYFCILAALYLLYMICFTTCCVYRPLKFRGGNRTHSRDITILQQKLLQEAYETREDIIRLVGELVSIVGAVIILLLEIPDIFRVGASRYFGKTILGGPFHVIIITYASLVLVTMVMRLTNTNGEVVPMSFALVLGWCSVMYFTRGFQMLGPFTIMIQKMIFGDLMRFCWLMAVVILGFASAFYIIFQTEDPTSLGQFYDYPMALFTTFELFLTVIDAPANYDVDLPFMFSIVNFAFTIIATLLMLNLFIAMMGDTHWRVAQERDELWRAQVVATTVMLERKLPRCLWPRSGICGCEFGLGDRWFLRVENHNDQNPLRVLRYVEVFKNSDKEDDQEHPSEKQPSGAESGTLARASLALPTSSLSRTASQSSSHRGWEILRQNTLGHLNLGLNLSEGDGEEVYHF", "assay": "cell microarray on HEK293 cells", "method": "as §1", "values": [{"binder": "{Biotin-PEG4′}-CDYDEQFFTALARLRGADICEYIQASFQYLPGECIEEILDNLGCS (designed binder, cysteine pairing not given here)", "note": "[C247]", "binding result": "no binding (tested: 2 µg/mL)"}, {"binder": "{Biotin-PEG4′}-CDYDEQFFTALKRLRGGDICEYIQASFQYLPGLCIEEILDNLGCS (designed binder, cysteine pairing not given here)", "note": "[C190]", "binding result": "no binding (tested: 2 µg/mL)"}, {"binder": "{Biotin-PEG4′}-CEYDEQFFTALKRLRGDDICDYIQASFQYLPGLCIEEILDNLGCS (designed binder, cysteine pairing not given here)", "note": "[C197]", "binding result": "no binding (tested: 2 µg/mL)"}]}, {"target": "T7, TRPV4 (human, UniProt Q9HBA0 1-871)", "T7 construct": "whole, on cells", "T7 sequence (Q9HBA0 whole entry)": "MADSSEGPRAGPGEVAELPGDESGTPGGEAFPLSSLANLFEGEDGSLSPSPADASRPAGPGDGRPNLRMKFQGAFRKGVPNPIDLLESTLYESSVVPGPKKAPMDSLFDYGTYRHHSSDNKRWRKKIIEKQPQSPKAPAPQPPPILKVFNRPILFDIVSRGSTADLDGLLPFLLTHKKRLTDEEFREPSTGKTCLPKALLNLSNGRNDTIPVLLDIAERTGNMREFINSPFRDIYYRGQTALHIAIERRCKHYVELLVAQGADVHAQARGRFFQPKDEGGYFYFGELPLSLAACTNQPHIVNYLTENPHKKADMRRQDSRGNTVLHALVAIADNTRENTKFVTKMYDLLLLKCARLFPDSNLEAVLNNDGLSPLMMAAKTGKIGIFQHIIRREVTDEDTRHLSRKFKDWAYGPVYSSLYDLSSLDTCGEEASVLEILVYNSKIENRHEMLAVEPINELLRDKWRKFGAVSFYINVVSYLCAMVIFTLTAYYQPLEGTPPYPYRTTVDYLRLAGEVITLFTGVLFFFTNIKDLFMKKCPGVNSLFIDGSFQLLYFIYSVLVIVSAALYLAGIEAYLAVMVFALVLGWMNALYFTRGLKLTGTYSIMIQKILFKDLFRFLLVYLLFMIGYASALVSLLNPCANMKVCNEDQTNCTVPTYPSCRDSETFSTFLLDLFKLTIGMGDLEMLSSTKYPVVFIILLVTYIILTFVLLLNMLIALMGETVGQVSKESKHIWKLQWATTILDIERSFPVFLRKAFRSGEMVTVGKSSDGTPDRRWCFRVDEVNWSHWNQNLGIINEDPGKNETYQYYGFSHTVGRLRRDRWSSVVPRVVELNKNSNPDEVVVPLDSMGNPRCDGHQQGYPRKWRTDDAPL", "assay": "cell microarray on HEK293 cells", "method": "as §1", "values": [{"binder": "{Biotin-PEG4′}-CDYDEQFFTALARLRGADICEYIQASFQYLPGECIEEILDNLGCS (designed binder, cysteine pairing not given here)", "note": "[C247]", "binding result": "no binding (tested: 2 µg/mL)"}, {"binder": "{Biotin-PEG4′}-CDYDEQFFTALKRLRGGDICEYIQASFQYLPGLCIEEILDNLGCS (designed binder, cysteine pairing not given here)", "note": "[C190]", "binding result": "no binding (tested: 2 µg/mL)"}, {"binder": "{Biotin-PEG4′}-CEYDEQFFTALKRLRGDDICDYIQASFQYLPGLCIEEILDNLGCS (designed binder, cysteine pairing not given here)", "note": "[C197]", "binding result": "no binding (tested: 2 µg/mL)"}]}, {"target": "T8, EGF (human, UniProt P01133 23-1207)", "T8 construct": "whole, on cells", "T8 sequence (P01133 23-1207)": "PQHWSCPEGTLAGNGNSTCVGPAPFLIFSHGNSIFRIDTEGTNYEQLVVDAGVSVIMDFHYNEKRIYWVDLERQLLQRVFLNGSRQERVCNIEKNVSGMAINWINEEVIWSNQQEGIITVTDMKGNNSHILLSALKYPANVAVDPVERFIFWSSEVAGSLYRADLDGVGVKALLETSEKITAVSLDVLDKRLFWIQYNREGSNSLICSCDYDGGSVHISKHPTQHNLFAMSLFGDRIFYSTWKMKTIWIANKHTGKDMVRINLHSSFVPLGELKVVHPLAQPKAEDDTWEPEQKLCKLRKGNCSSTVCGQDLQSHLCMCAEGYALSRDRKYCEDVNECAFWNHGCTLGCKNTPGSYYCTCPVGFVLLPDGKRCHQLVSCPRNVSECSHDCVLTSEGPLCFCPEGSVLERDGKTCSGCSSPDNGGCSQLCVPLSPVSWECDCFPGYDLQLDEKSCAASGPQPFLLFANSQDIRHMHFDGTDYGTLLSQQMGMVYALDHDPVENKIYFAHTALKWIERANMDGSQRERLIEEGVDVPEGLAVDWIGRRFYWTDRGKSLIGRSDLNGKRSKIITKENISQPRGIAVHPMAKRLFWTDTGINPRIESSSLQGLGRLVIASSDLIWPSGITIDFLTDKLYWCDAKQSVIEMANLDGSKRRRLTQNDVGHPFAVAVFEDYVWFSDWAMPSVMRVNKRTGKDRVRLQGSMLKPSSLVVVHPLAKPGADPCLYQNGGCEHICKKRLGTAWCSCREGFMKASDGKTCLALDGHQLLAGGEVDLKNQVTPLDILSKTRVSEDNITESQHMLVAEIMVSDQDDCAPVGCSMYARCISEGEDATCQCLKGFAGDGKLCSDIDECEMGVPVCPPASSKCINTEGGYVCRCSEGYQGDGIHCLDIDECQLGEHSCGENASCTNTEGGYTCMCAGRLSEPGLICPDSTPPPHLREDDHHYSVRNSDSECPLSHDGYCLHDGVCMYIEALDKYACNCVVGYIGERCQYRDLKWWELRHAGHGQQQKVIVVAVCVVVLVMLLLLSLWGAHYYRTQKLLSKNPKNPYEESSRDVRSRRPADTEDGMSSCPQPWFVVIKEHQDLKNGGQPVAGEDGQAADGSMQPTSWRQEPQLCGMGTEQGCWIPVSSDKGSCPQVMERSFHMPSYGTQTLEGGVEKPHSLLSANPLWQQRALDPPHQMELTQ", "assay": "cell microarray on HEK293 cells", "method": "as §1", "values": [{"binder": "{Biotin-PEG4′}-CDYDEQFFTALARLRGADICEYIQASFQYLPGECIEEILDNLGCS (designed binder, cysteine pairing not given here)", "note": "[C247]", "binding result": "no binding (tested: 2 µg/mL)"}, {"binder": "{Biotin-PEG4′}-CDYDEQFFTALKRLRGGDICEYIQASFQYLPGLCIEEILDNLGCS (designed binder, cysteine pairing not given here)", "note": "[C190]", "binding result": "no binding (tested: 2 µg/mL)"}, {"binder": "{Biotin-PEG4′}-CEYDEQFFTALKRLRGDDICDYIQASFQYLPGLCIEEILDNLGCS (designed binder, cysteine pairing not given here)", "note": "[C197]", "binding result": "no binding (tested: 2 µg/mL)"}]}, {"target": "T9, EDN2 (human, UniProt P20800 49-69)", "T9 construct": "whole, on cells; Secreted targets were tethered to the plasma membrane", "T9 chain (looked up)": "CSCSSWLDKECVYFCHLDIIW", "assay": "cell microarray on HEK293 cells", "method": "as §1", "values": [{"binder": "{Biotin-PEG4′}-CDYDEQFFTALARLRGADICEYIQASFQYLPGECIEEILDNLGCS (designed binder, cysteine pairing not given here)", "note": "[C247]", "binding result": "no binding (tested: 2 µg/mL)"}, {"binder": "{Biotin-PEG4′}-CDYDEQFFTALKRLRGGDICEYIQASFQYLPGLCIEEILDNLGCS (designed binder, cysteine pairing not given here)", "note": "[C190]", "binding result": "no binding (tested: 2 µg/mL)"}, {"binder": "{Biotin-PEG4′}-CEYDEQFFTALKRLRGDDICDYIQASFQYLPGLCIEEILDNLGCS (designed binder, cysteine pairing not given here)", "note": "[C197]", "binding result": "no binding (tested: 2 µg/mL)"}]}, {"target": "T10, SLC22A23 (human, UniProt A1A5C7 1-686)", "T10 construct": "whole, on cells", "T10 sequence (looked up)": "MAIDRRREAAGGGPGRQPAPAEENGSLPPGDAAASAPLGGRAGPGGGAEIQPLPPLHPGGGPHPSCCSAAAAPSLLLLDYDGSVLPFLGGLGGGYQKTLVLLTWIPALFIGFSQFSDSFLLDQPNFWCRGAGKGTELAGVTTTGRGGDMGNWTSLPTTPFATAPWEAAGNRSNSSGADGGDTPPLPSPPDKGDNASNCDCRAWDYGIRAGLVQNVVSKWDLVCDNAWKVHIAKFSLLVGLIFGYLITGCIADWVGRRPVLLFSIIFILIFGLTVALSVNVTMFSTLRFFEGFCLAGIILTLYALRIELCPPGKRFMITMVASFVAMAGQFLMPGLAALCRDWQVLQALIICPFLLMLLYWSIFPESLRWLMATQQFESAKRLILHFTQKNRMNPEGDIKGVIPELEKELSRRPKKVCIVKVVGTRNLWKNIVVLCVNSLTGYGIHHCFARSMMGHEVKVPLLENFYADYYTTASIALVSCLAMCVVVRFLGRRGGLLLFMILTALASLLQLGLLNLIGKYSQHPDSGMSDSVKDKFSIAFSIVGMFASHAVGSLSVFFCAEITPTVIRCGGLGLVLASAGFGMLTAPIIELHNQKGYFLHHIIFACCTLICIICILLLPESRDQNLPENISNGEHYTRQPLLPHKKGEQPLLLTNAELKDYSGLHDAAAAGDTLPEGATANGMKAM", "assay": "cell microarray on HEK293 cells", "method": "as §1", "values": [{"binder": "{Biotin-PEG4′}-CDYDEQFFTALARLRGADICEYIQASFQYLPGECIEEILDNLGCS (designed binder, cysteine pairing not given here)", "note": "[C247]", "binding result": "no binding (tested: 2 µg/mL)"}, {"binder": "{Biotin-PEG4′}-CDYDEQFFTALKRLRGGDICEYIQASFQYLPGLCIEEILDNLGCS (designed binder, cysteine pairing not given here)", "note": "[C190]", "binding result": "no binding (tested: 2 µg/mL)"}, {"binder": "{Biotin-PEG4′}-CEYDEQFFTALKRLRGDDICDYIQASFQYLPGLCIEEILDNLGCS (designed binder, cysteine pairing not given here)", "note": "[C197]", "binding result": "no binding (tested: 2 µg/mL)"}]}]}
